# In patent EP4328239A1 (Max-Delbrück-Centrum für Molekulare Medizin in der …, dated 2024):
# B1: TCR6 (TCR, V domains shown, not shown: a dimerising Fc or GST)
# V domain 1: QKEVEQNSGPLSVPEGAIASLNCTYSDRGSQSFFWYRQYSGKSPELIMFIYSNGDKEDGRFTAQLNKASQYVSLLIRDSQPSDSATYLCAVSSNTGKLIFGQGTTLQVKP
# V domain 2: DAGVIQSPRHEVTEMGQEVTLRCKPISGHNSLFWYRQTMMRGLELLIYFNNNVPIDDSGMPEDRFSAKMPNASFSTLKIQPSEPRDSAVYFCASKWGQGAGDTQYFGPGTRLTVL
# Biological target: … (SEQ ID NO: 3) in complex with HLA-B*44:03 (human)
# Test: cell-based or functional assay
binder,measurement,value
B1,EC50 killing capacity,1.4 E:T ratio
